Results published in patent publication US20180137234A1 (University of Washington, published 2018).

B1: ank3C2_1 (designed binder)
chain: SELGKRLIEAAENGNKDRVKDLLENGADVNASDSDGKTPLHLAAENGHAKVVLLLLEQGADPNAKDSDGKTPLHLAAENGHAVVVALLLMHGADPNAKDSDGKTPLHLAAENGHEEVVILLLAMGADPNTSDSDGRTPLDLAREHGNEEVVKVLEDH
notes: One subunit of a designed homodimer (C2) built from an idealized ankyrin repeat protein; It was expressed in E. coli with an N- or C-terminal (His)6 tag
B2: ank1C2_1 (designed binder)
chain: SELGKRLIEAAENGNKDRVKDLIENGADVNASDSDGRTPLHHAAENGHAEVVALLIEKGADVNAKDSDGRTPLHHAAENGHDEVVLILLLKGADVNAKDSDGRTPLHHAAENGHKRVVLVLILAGADVNTSDSDGRTPLDLAREHGNEEVVKALEKQ
notes: One subunit of a designed homodimer (C2) built from an idealized ankyrin repeat protein; also called ank1C2_G3; ANK1C2-G3
B3: 1na0C3_3 (designed binder)
chain: NLAEKMYKAGNAMYRKGQYTIAIIAYTLALLKDPNNAEAWYNLGNAAYKKGEYDEAIEAYQKALELDPNNAEAWYNLGNAYYKQGDYDEAIEYYQKALELDPNNAEAKQNLGNAKQKQG
notes: One subunit of a designed homotrimer (C3) built from a consensus designed tpr protein
B4: HR00C3_2 (designed binder)
chain: IEEVVAEMIDILAESSKKSIEELARAADNKTTEKAVAEAIEEIARLATAAIQLIEALAKNLASEEFMARAISAIAELAKKAIEAIYRLADNHTTDTFMARAIAAIANLAVTAILAIAALASNHTTEEFMARAISAIAELAKKAIEAIYRLADNHTTDKFMAAAIEAIALLATLAILAIALLASNHTTEEFMAKAISAIAELAKKAIEAIYRLADNHTSPTYIEKAIEAIEKIARKAIKAIEMLAKNITTEEYKEKAKSAIDEIREKAKEAIKRLEDNRT
notes: One subunit of a designed homotrimer (C3) built from a de novo designed repeat protein
B5: HR04C4_1 (designed binder)
chain: DECEEKARRVAEKVERLKRSGTSEDEIAEEVAREISEVIRTLKESGSSYEVICECVARIVAEIVEALKRSGTSAVEIAKIVARVISEVIRTLKESGSSYEVICECVARIVAEIVEALKRSGTSAAIIALIVALVISEVIRTLKESGSSFEVILECVIRIVLEIIEALKRSGTSEQDVMLIVMAVLLVVLATLQLSGS
notes: One subunit of a designed homotetramer (C4); also called tj10C4_G1

Assays:
[1] = biological target: the molecule itself; assay: X-ray crystal structure of the homodimer
[2] = biological target: the molecule itself; assay: X-ray crystal structure of the homotrimer
[3] = biological target: the molecule itself; assay: SEC-MALS and SAXS of the original construct

Row | Protein | binding result [1] | binding result [2] | other results
1 | B1 | binds | – | –
2 | B2 | binds | – | –
3 | B3 | – | binds | –
4 | B4 | – | binds | –
5 | B5 | – | – | binding result [3]: binds
